{"source": "patent US20030235535A1", "about": "(University of California, published 2003)", "key": {"[1]": {"biological_target": "PKR2 stably expressed in Chinese Hamster Ovary cells (CHO-PKR2)", "assay": "cell-based or functional assay"}, "mouse PK2 receptor [2]": {"biological_target": "T1, mouse PK2 receptor (mouse, UniProt Q8K458 1-381)", "T1 construct": "Heptahelical G-protein-coupled receptor; also called mouse PKR2", "T1 sequence (Q8K458 whole entry)": "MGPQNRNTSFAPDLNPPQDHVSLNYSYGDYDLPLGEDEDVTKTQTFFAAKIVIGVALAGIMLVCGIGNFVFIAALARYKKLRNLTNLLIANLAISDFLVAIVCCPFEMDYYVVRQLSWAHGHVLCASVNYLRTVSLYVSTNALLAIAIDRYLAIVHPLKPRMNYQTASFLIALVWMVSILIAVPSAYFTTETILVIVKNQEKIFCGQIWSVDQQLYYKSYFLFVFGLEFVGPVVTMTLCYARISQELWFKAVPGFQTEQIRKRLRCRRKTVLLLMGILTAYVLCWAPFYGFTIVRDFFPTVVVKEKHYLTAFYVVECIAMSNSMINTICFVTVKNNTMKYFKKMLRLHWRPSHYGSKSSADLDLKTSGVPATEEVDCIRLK", "assay": "cell-based or functional assay"}, "mouse PK2 receptor [3]": {"biological_target": "T1, mouse PK2 receptor", "assay": "radioligand binding assay with iodinated PK2 (FIG. 11)", "text": "An exemplary assay for determining binding of detectably labeled PK2, PK1 or PK2/PK1 chimera to PK2 receptor or PK1 receptor is the radioligand filter binding assay described in Li et al. Molecular Pharmacology 59:692-698 (2001)). […] A variety of other low- and high-throughput assays suitable for detecting selective binding interactions between a receptor and a ligand are known in the art. Such assays include, for example, fluorescence correlation spectroscopy (FCS) and scintillation proximity assays (SPA) reviewed in Major, J. Receptor and Signal Transduction Res. 15:595-607 (1995); and in Sterrer et al., J. Receptor and Signal Transduction Res. 17:511-520 (1997)). Binding assays can be performed in any suitable assay format including, for example, cell preparations such as whole cells or membranes that contain PK2 receptor or PK1 receptor, or substantially purified PK2 receptor polypeptide or PK1 receptor, either in solution or bound to a solid support."}}}
{"molecule": "purified recombinant mouse PK2 (from UniProt Q9QXU7 27-128) (ligand)", "values": [{"measurement": "EC50, calcium mobilization", "setting": "[1]", "result": 7.3, "unit": "nM"}, {"measurement": "fold stimulation of CLOCK:BMAL1-mediated transcription of the 2.8 kb PK2 promoter (luciferase reporter)", "setting": "[1]", "result": 4, "unit": "fold"}]}
{"molecule": "human PK2 (from UniProt Q9HC23 28-129) (ligand)", "values": [{"measurement": "calcium ion mobilization (PK2 receptor activation assay), printed as kd", "setting": "mouse PK2 receptor [2]", "result": 2.9, "unit": "nM"}]}
{"molecule": "^125I-human PK2 (ligand, radioiodinated with ^125I (paragraph 77 describes human PK2 radioiodinated at the core Tyr, citing Li et al. 2001), also called iodinated PK2) AVITGACDKDSQCGGGMCCAVSIWVKSIRICTPMGKLGDSCHPLTRKVPFFGRRMHHTCPCLPGLACLRTSFNRFICLAQK", "values": [{"measurement": "Kd", "setting": "mouse PK2 receptor [3]", "result": "~1", "unit": "nM"}]}
